In patent US20220162328A1 (SHANDONG BOAN BIOTECHNOLOGY, published 2022):
Substitutions are numbered along the chain they refer to.

T1: IL4R-Fc-biotin (UniProt P24394 26-232, biotinylated (sites not given))
T1 construct: also called IL4R-Fc protein (Sinobiological Co., Ltd., 10402-H02H); not shown: Fc part
T1 sequence (looked up): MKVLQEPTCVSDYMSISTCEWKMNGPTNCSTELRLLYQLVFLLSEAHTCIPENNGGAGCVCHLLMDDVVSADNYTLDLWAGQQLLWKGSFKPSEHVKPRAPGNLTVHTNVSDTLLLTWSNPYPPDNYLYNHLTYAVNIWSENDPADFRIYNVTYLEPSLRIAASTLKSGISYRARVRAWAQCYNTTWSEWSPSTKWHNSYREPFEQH

T2: human IL4R (10402-H08H, Sinobiological Co., Ltd.) (human, UniProt P24394 26-232)
T2 construct: Bought protein, coated on ELISA plates; also called IL4R-His protein; IL4R protein; not shown: His tag
T2 sequence (looked up): T1 sequence (looked up)

T3: receptors of IL4/IL13 on TF-1 cells and PBMC (IL4 receptor) (human, UniProt P24394 26-825)
T3 sequence (looked up): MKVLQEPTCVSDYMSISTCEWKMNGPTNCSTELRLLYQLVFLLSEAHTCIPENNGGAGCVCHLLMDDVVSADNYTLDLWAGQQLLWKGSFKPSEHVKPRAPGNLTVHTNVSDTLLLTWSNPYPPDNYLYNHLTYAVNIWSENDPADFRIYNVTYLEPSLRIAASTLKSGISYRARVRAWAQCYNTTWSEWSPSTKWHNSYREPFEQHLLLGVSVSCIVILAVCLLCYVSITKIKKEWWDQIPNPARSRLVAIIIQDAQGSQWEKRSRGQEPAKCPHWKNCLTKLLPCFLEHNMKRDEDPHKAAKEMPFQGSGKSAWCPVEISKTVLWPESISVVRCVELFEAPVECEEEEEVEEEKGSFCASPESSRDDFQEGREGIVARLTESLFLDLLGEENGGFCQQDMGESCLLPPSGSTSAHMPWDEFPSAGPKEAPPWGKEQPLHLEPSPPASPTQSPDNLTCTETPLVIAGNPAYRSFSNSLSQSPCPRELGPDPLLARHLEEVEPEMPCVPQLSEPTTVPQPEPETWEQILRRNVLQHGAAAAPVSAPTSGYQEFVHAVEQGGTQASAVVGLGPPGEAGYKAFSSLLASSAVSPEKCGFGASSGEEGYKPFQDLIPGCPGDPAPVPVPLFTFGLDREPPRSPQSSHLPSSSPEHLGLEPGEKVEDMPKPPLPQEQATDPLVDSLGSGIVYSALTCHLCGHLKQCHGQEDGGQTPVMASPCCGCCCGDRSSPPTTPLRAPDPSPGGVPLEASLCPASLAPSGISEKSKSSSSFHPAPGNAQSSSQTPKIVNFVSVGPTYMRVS

B1: BA1301 (antibody, IgG4, V domains shown)
VH: QVQLVESGGGVVQPGRSLRLSCAASGLTFSSYAMHWVRQAPGKGLEWVAVISYDGSNKYYADSVKGRFTISRDNSKNTLYLQMNSLRAEDTAVYYCARGFGYFDLWGRGTLVTVSS
VL: DIQMTQSPSTLSASVGDRVTITCRASQSITRRLAWYQQKPGKAPKLLIYKASSLESGVPSRFSGSGSGTEFTLTISSLQPDDFATYYCQQYVSFSRTFGQGTKVEIKR
notes: also called IL4RQ29-BA1301
B2: IL4R-BA173-IgG4 (antibody, V domains shown)
VH: QVQLVESGGGVVQPGRSLRLSCAASGFTFSSYAMHWVRQAPGKGLEWVAVISYDGSNKYYADSVKGRFTISRDNSKNTLYLQMNSLRAEDTAVYYCARGLTTVRGVLYWGQGTLVTVSS
VL: DIVMTQSPSTLSASVGDRVTITCRASQSISTRLAWYQQKPGKAPKLLVYWASSLESGVPSRFSGSGSGTEFTLAISSLQPDDFGTYYCQQYTSYSWTFGQGTKLEIKR
notes: also called IL4RQ6-BA173
B3: IL4R-BA167-IgG4 (antibody, V domains shown)
VH: B2 VH
VL: EIVMTQSPSSLSASLGDRVTITCRASQNIGSRLAWYQQKPGKAPKLLIYKASSLESGVPSRFSGSGSGTEFTLTISSLQPDDFATYYCQQYNSYSWTFGQGTKLEIKR
notes: also called IL4RQ6-BA167
B4: IL4R-BA030-IgG4 (antibody, V domains shown)
VH: QVQLVESGGGVVQPGRSLRLSCAASGFTFSSYAIHWVRQAPGKGLEWVAVISYDGSKKYYADSVKGRFTISRDNSKNTLYLQMNSLRAEDTAVYYCAREYYYGMDVWGQGTTVTVSS
VL: DIVMTQSPSTLSASVGDRVTITCRASQSISNWLAWYQQKPGKAPKRLIYKASSLESGVPSRFSGSGSGTEFTLTISSLQPDDFATYYCQQYNRYFTFGQGTKLEIKR
notes: also called IL4RQ14-BA030
B5: BA420 (antibody, IgG4, V domains shown)
VH: QVQLVESGGGAVQPGRSLRVSCAASGFTFSSHGMDWVRQVPGKGLEWVAVISYDGKKKYYADSVKGRFTISRDNSKNTLYLQMNSLRAEDTAIYYCVKESRYYYGMDVWGQGTTVTVSS
VL: DIVMTQSPSTLSASVGDRVTITCRASPSISSWLAWYQQKPGKAPKVLIYKSSRLESGVPSRFSGNGSGTEFTLTISSLQPDDFATYYCQQYNGYSWTFGQGTKVEIKR
notes: also called IL4RQ24-BA420
B6: BA034 (antibody, IgG4, V domains shown)
VH: B5 VH with G8R
VL: B5 VL with V3Q, P27Q, I29F, S30N, V46L, N65S
notes: also called IL4RQ14-BA034
B7: Dupilumab (antibody, human IgG4 S228P, kappa, V domains shown)
VH: EVQLVESGGGLEQPGGSLRLSCAGSGFTFRDYAMTWVRQAPGKGLEWVSSISGSGGNTYYADSVKGRFTISRDNSKNTLYLQMNSLRAEDTAVYYCAKDRLSITIRPRYYGLDVWGQGTTVTVSS
VL: DIVMTQSPLSLPVTPGEPASISCRSSQSLLYSIGYNYLDWYLQKSGQSPQLLIYLGSNRASGVPDRFSGSGSGTDFTLKISRVEAEDVGFYYCMQALQTPYTFGQGTKLEIKR

target: T1, IL4R-Fc-biotin; assay: competition ELISA: IL4 coated, IL4R-Fc-biotin (0.4 µg/ml) with antibody dilutions
Method: IL4 (11846-HANE, Sinobiological Co., Ltd.) was coated at the concentration of 0.2 μg/ml in 100 μL/well at 4° C. overnight; 3% skimmed milk powder was used for blocking 1 h; at the same time, 50 μL of IL4R-Fc-biotin (0.4 μg/ml) and 50 μL of candidate antibody at different concentrations (16 μg/mL, 4 μg/mL, 1 μg/mL, 0.25 μg/mL, 0.0625 μg/mL, 0.015625 μg/mL, and 0.00390625 μg/mL), 100 μL in total, were added to the blocked ELISA plate and co-incubated at 37° C. for 1 h; after washing three times with PBST, […]/HRP (R&D, Cat. No.: 890803) was added, and incubated at 37° C. for 1 h; and 100 μL of TMB color developing solution (Beijing Meike Wande Co., Ltd., Cat. No.: 1001) was added to each well. Color development was stopped, after 10 min color development, with the addition of 50 μL of 2 M concentrated sulfuric acid, and OD450 was measured with a microplate reader.

Row | Binder | IC50
1 | B1 | 0.592 µg/mL
2 | B2 | 0.354 µg/mL
3 | B3 | 0.458 µg/mL
4 | B4 | 0.343 µg/mL
5 | B5 | 0.334 µg/mL
6 | B6 | 0.71 µg/mL

target: T1, IL4R-Fc-biotin; assay: competition ELISA: IL13RA1 coated, IL4R-Fc-biotin (0.24 µg/ml) and IL13 (1 µg/ml) pre-incubated with antibody dilutions
Method: IL13RA1 (10943-H08H, Sinobiological Co., Ltd.) was coated at the concentration of 0.8 μg/ml in 100 μL/well at 4° C. overnight; 3% skimmed milk powder was used for blocking 1 h; at the same time, IL4R-Fc-biotin (0.24 μg/ml) and IL13 (1 μg/ml, 10369-HANE, Sinobiological Co., Ltd.) and candidate antibody at different concentrations (30 μg/mL, 7.5 μg/mL, 1.875 μg/mL, 0.46875 μg/mL, 0.1171875 μg/mL and 0 μg/mL) were co-incubated at 37° C. for 1 h, then added to the blocked ELISA plate and co-incubated at 37° C. for another 1 h; after washing three times with PBST, […]/HRP (R&D, Cat. No.: 890803) was added, and incubated at 37° C. for 1 h; and after washing four times with PBST, TMB was used for color development for 10 min. 50 μL of 2M H₂SO₄ was added to each well to stop color development. OD450 was measured with a microplate reader.

Row | Binder | IC50
7 | B2 | 0.302 µg/mL
8 | B3 | 0.407 µg/mL
9 | B4 | 0.381 µg/mL

target: T2, human IL4R (10402-H08H, Sinobiological …); assay: ELISA: IL4R coated at graded concentrations (0.4-0 µg/ml), antibody fixed at 2 µg/ml
Method: CBS coating solution (pH 9.6 carbonic acid solution) was used to coat protein IL4R (10402-H08H, Sinobiological Co., Ltd.) at different concentrations (0.4 μg/ml, 0.2 μg/ml, 0.1 μg/ml, 0.05 μg/ml, 0.025 μg/ml, 0.0125 μg/ml, 0.00625 μg/ml and 0 μg/ml) in 100 μL/well at 4° C. overnight; 3% skimmed milk powder was used for blocking 1 h at 37° C.; 100 μL of candidate antibody at 2 μg/ml was added to each well and incubated at 37° C. for 1 h; and then goat anti-human IgG (H+L)/HRP (KPL, Cat. No.: 474-1006) was added, and incubated at 37° C. for 1 h. Color development was stopped, after 10 min color development, with the addition of 50 μL of 2 M H₂SO₄ to each well, and OD450 was measured with a microplate reader. Compared with the control antibody, 3 antibodies had close binding sensitivity to IL4R protein.

Row | Binder | EC50
10 | B2 | 0.025 µg/mL
11 | B3 | 0.045 µg/mL
12 | B4 | 0.031 µg/mL

target: T3, receptors of IL4/IL13 on TF-1 cells and …; assay: cell-based or functional assay

Row | Binder | IC50 (IL4, ng/mL), PBMC, inhibition of IL4-promoted proliferation | IC50 (IL4, ng/mL), TF-1 Cells, inhibition of IL4-induced proliferation | IC50 (IL13, ng/mL), TF-1 Cells, inhibition of IL13-induced proliferation
13 | B2 | 1.02 ng/mL | 66 ng/mL | 6 ng/mL
14 | B3 | 1.52 ng/mL | 139 ng/mL | 5 ng/mL
15 | B7 | 2.87 ng/mL | 65 ng/mL | 9 ng/mL
16 | B4 | 8.09 ng/mL | 227 ng/mL | 9 ng/mL

target: T1, IL4R-Fc-biotin; assay: competition ELISA: IL4 coated, IL4R-Fc-biotin (0.4 µg/ml) pre-incubated with antibody dilutions
Method: IL4 (11846-HANE, Sinobiological Co., Ltd.) was coated at the concentration of 0.2 μg/ml in 100 μL/well at 4° C. overnight; 3% skimmed milk powder was used for blocking 1 h; at the same time, IL4R-Fc-biotin (0.4 μg/ml) and candidate antibody at different concentrations (30 μg/mL, 7.5 μg/mL, 1.875 μg/mL, […], 0.1171875 μg/mL and 0 μg/mL) were co-incubated at 37° C. for 1 h, then added to the blocked ELISA plate and co-incubated at 37° C. for another 1 h; then […]/HRP (R&D, Cat. No.: 890803) was added, and incubated at 37° C. for 1 h; color development was stopped, after 10 min color development, with the addition of 50 μL of 2M H₂SO₄ to each well. OD450 was measured with a microplate reader.

Row | Binder | IC50
17 | B2 | 0.367 µg/mL
18 | B3 | 0.477 µg/mL
19 | B4 | 0.346 µg/mL
